Laboratory results from the DeepSol protein solubility set.

Experiment: soluble on expression in E. coli; label from the status in PepcDB or PDB records

Sequence	soluble on expression in E. coli
MNDRADFVVPDITTRKNVGLSHDANDFTLPQPLDRYSAEDHATWATLYQRQCKLLPGRACDEFLEGLERLEVDADRVPDFNKLNEKLMAATGWKIVAVPGLIPDDVFFEHLANRRFPVTWWLREPHQLDYLQEPDVFHDLFGHVPLLINPVFADYLEAYGKGGVKAKALGALPMLARLYWYTVEFGLINTPAGMRIYGAGILSSKSESIYCLDSASPNRVGFDLMRIMNTRYRIDTFQKTYFVIDSFKQLFDATAPDFAPLYLQLADAQPWGAGDIAPDDLVLNAGDHQGWADTEDV	soluble
MGSDKIHHHHHHMNYPFIYPGAIHMHTTYSDGSATFPHLIAAAREAGLRWVIVTDHDTLEGLPFAGWHDDVLVIVGHEITPDHNHFLALNVDTVISNELPPQQFIDEVYQRGGFGIIAHPDERVRNSFKDIYRWDDWTIDGPSQRTGRVVGLELWNFMSDWGEHLTERNKLALVLYPQLGLSGPTLATLAWWDRLNMVGRRTFGIGGVDAHGFKRKAPWGEIEVFPYPWIFRTLTNYLLLPEPLSSDATTATNQVYAALTAGRCYFVNRLDGDAPSIIFRLSRPGDLAEIGDTISLAGGPLLVEVDVGADAYARLIVNGEVMTSGIRRIRQTVTDDGVYRVEAYWGGKPWLFTNPIFVTAADAGREGSL	not soluble
MKEIIFDDIGSYPLPEGVSREWVQNAFKTRAEDEKLFTVINDAFQQKIDAGVEVPTYPQYQDMNEQFLKVIRDSNCTDSPFEVKLECARIEELEAIETVAKAYKEKFGETLKVRICVTGPTELYLKEFGGTRYTDIYTLFAKSINRFVRNSMKSAKHFKIATVSIDEPSIGLNPELAFDENDVISALTEASKAASKWGADVEIHLHSPLYYNYACETTTINVIGVESAGTPSYLELIDKKMLEDTDSFLRIGIARTDIFSLAGILNEKYCTNIWKDQQYIPEIVSQLETPEVIEKRLKLAYRRFGSLIKYVGPDCGLGSWPNQRIAFILLSNVAQGIKNFRENLLEHHHHHH	soluble
PLHHLMIGTWTPPGAIFTVQFDDEKLTCKLIKRTEIPQDEPISWMTFDHERKNIYGAAMKKWSSFAVKSPTEIVHEASHPIGGHPRANDADTNTRAIFLLAAKQPPYAVYANPFYKFAGYGNVFSVSETGKLEKNVQNYEYQENTGIHGMVFDPTETYLYSADLTANKLWTHRKLASGEVELVGSVDAPDPGDHPRWVAMHPTGNYLYALMEAGNRICEYVIDPATHMPVYTHHSFPLIPPGIPDRDPETGKGLYRADVCALTFSGKYMFASSRANKFELQGYIAGFKLRDCGSIEKQLFLSPTPTSGGHSNAVSPCPWSDEWMAITDDQEGWLEIYRWKDEFLHRVARVRIPEPGFGMNAIWYD	soluble
HMNAEINPLHAYFKLPNTVSLVAGSSEGETPLNAFDGALLNAGIGNVALIRISSIMPPEAEIVPLPKLPMGALVPTAYGYIISDVPGETISAAISVAIPKDKSLCGLIMEYEGKCSKKEAEKTVREMAKIGFEMRGWELDRIESIAVEHTVEKLGCAFAAAALWYK	soluble
MGSDKIHHHHHHMGQSSEDAAMTLQPFDGFGLGLRPPHYRAFLDSERPLVDFVEVISENFMVGGGRPLHVIDAVRERYPVALHGVSMSVGSADGVKLDYLRRLKGLADRVDPMWVSDHLCWTGVEGFNSHDLLPVPYTEEAMAVVCANIALAQDVLERPLLLENPSSYVTFANDAMAEHQFLAEMCARTGCYLLLDINNIYVSASNHGFDPYEYLAAVPVDRVLQIHLAGHSQGRELLIDTHDQPVPDSVWALYEAAAGRFGPVAAMIERDDDIPPLDDLLAELDVARARWAAGRRGSLAA	not soluble
MTRVRDLMSTHIVHCTPLDNVYEAAVKMKEESIGLIPVVENEQVVGLVTDRDLVVRGIAEKHPGSNKITNVMTTNIISVSPNDSIEKATELMAQHQIRRLPVVDSGQLIGMLALGDLAIRESADDQAGFALSEISERTE	not soluble
MTIPFDHWPEWPQHSDRTRRKIEEVFQSNRWAISGYWTGEESMERKFAKAFADFNGVPYCVPTTSGSTALMLALEALGIGEGDEVIVPSLTWIATATAVLNVNALPVFVDVEADTYCIDPQLIKSAITDKTKAIIPVHLFGSMANMDEINEIAQEHNLFVIEDCAQSHGSVWNNQRAGTIGDIGAFSCQQGKVLTAGEGGIIVTKNPRLFELIQQLRADSRVYCDDSSELMHGDMQLVKKGDIQGSNYCLSEFQSAILLDQLQELDDKNAIREKNAMFLNDALSKIDGIKVMKRPPQVSRQTYYGYVFRFDPVKFGGLNADQFCEILREKLNMGTFYLHPPYLPVHKNPLFCPWTKNRYLKSVRKTEAYWRGLHYPVSERASGQSIVIHHAILLAEPSHLSLLVDAVAELARKFCVTH	soluble
MPSIRLADLAQQLDAELHGDGDIVITGVASMQSAQTGHITFMVNPKYREHLGLCQASAVVMTQDDLPFAKSAALVVKNPYLTYARMAQILDTTPQPAQNIAPSAVIDATAKLGNNVSIGANAVIESGVELGDNVIIGAGCFVGKNSKIGAGSRLWANVTIYHEIQIGQNCLIQSGTVVGADGFGYANDRGNWVKIPQIGRVIIGDRVEIGACTTIDRGALDDTVIGNGVIIDNQCQIAHNVVIGDNTAVAGGVIMAGSLKIGRYCMIGGASVINGHMEICDKVTVTGMGMVMRPITEPGVYSSGIPLQPNKVWRKTAALVMNIDDMSKRLKSLERKVNQQD	not soluble
MNLSLHYNLDNRNAMKPHTLVKRSSSQVTDQAVEVIHERIQQGFYPVGSALPSQRELSAELGISRASLREALTRLAALGLLNIMAGKGAYVTAIESQPVEQWNIQFKISLKDFYQLRYILEGFSALLACEYISENDLVQLNTHFEQLESAIQQHNWQEAAENDFAFHRHIIDLSHNQSIIQSLKKQTEWMKQSQILPFVQPNLAYKTIQEHEQILQALIKRDGLMAEKAMRQHIIGAAQRAGVYFSSHS	not soluble
MRVDRRTFLKATGAALGALALSGLPARAQGLEGEDLEHLEQALKEVFGKGFKDLTPSDAVKLNMPAIAESGANVPAEVEVALPKEQVKAIHLFADKNPTPHILAFMPMKAEPYYATRVRLAETTAIRAVVETQDGKLLLASASTRVTVGGCG	soluble
MAHHHHHHMGTLEAQTQGPGSMDKTLDKQVAIVTGASRGIGRAIALELARRGAMVIGTATTEAGAEGIGAAFKQAGLEGRGAVLNVNDATAVDALVESTLKEFGALNVLVNNAGITQDQLAMRMKDDEWDAVIDTNLKAVFRLSRAVLRPMMKARGGRIVNITSVVGSAGNPGQVNYAAAKAGVAGMTRALAREIGSRGITVNCVAPGFIDTDMTKGLPQEQQTALKTQIPLGRLGSPEDIAHAVAFLASPQAGYITGTTLHVNGGMFMS	soluble
SMEVARAARLAQIFKEICDGIISYKDSSRQALAAPLLNLPPKKKNADYYEKISDPLDLITIEKQILTGYYKTVEAFDADMLKVFRNAEKYYGRKSPVGRDVCRLRKAYYNARHEASAQIDEIVGET	soluble
IVVLHGLYMHGLVMKPLASRLRRKGHSVQVVSYNSVRINEALLFKRIRNCLSETEKNVIVGHSLGGILAVHFVNSHNDKHTPIDSIVTIGSPLQGASIAKEIQNRKLGFILGNSKEQGLVDVNQLTVDCPIGSIAGTLPIGIRSSIIRDRVPSDGTVTVEETVLPELKDHLCLNYSHTSLIYAKQTVEQIDYFIHHHEFKRV	not soluble
MGSDKIHHHHHHMVTYVIQGILKEEEDRMVRRSFLIKGNEIAYVNGRLDKLTFIRMNGDQFCMAPGRVMNNDELETNLSISSFKKTLTSMIEKGCTSVVYFASANYERQLPFVIKQAYHRMNNSFIDYVIGLSLPAHLLRPSVLRFCKKEKIPVLRFSLQSIDDLYDVPWSRLQDVLYSYPIVLLPNMNELLEGERKLAEDLWVSLCEAHRIYGTTHPPNSLEAWPKTLLKLVGLYPKKGELRVGGDADYLLYYVARTNATLAETCDLDYDRDKPNVVVLRGSVLKANEVTSIRPGGGRRIRITRPGQFIPVSEASHWGM	not soluble
MAASLGLAAAAASAWAQAPAMDHGSMPGMDHGAAPASAMDHGSMPGMDHGAAPAPAIGALPSSDGAGDQSYAAYGIHSHMMDDMATSQLLFDKLGMTYDRDRRTGLQWDGQFWVGRDLDKLWIKSEGERVGGRSDGKVEAFWNRTISPFWDLQVGARRDFGTGPKRNWGAIGLQGVAPYNIETEVTAYVGGSGRTALALKAEYDLLLTQRLVLTPEIEASVYGKDDKARGIGAGLSDASFSLRLRYEITREVAPYVGVSFGRKFGRTASYASEEGESRSERAIMAGVRIWFLEHHHHHH	not soluble
MATFEEVSVLGFEEFDKAVKEHESKTIFAYFSGSKDTEGKSWCPDCVEAEPVIREGLKHVTEDCVFIYCQVGDKPYWKDPNNDFRQKLKITAVPTLLKYGTPQKLVESECCQSSLVEMIFSED	soluble
METDLLDADECSENEKTLESIEKVFSASHLLVKILEFSSAQHRQKLYIAGSRSRQGDLKGFLDLRLVNQQFNEGVCIAVRKEFKHIQIDIDDNFVRCNYFTIGLHHKPPEPGNRENANVEGEDGNPVEEDEEMPAHEDLPSEDTEDVRFLVKFLRWLAGTFDPIVENFKVFDSWSFKPCSLPPSWADRLTVFISMHPDMEYCNCEQCIRIARNCKESFGPLSFRMVEDALRDQNISYGALTFTDAFLADIAIAYTISIDNRDRFDANRFIRDFGGIRVDELTFAVQTLATYRDERPKPQPLEVLQLILRLWEAKTVEFEIVKFMENDYYLQRCAWERSGAFTLAHFATYSFQHFDEFVHVVPYKFSGTLDRDLRNEIMPIFDLRIDPSEGPLRMGSNLSLLSLASQNNENSTFTWINQGRIAFNMFRANHYMFITSGIVEFRGMLGTANWLKFTIRDMMRSTWGPRGSNVTERGKTVYWINFMEDVGDCIQIVWSEHAKELLETNFPNLVVTMNSSHAFRNCSNRRAATYNDSKRPDVQKKPINTFYCTFYDSVRNNTTHMKLIQIAN	not soluble
MSLRKRPDSVTPDLLHVDRSAMGPLAERMRPRTLDDMVGQKRLLAPDSALRRAVESGRVHSMILWGPPGCGKTTLALLLAHYADAEFNAISAVLSGLPEVRQVLAEAAQRFAGGRRTVLFVDEVHRFNKAQQDAFLPHIERGTILFVGATTENPSFELNSALLSRCRVHVLEGVSPQDIVEALQRALHDAERGLGQQTIQVSEASLLEIASAADGDVRRALTLLEIAAELATGEGGEITPRTLLQVLADRTRRFDKNGEQFYDQISALHKSVRSSNPDAALYWLTRMLDGGCDPTYLARRLTRMAIEDIGLADPRAQGMALEAWDIYERLGSPEGELAFAQLVLYLASTAKSNAGYAAFNQARAEVRATGTQEVPLHLRNAPTKLMKTLGYGQDYQYDHDAEGGIALDQTGFPDAMGERVYYNPMPRGMEIKLKEKLDRLRETRGQAREGHHHHHH	soluble
TDVDAFTLGEDLAYTPGDVIYQNDLIQLIQYKASTKKVNEVPLLFIPPFINKYYVLDMDEQKSLIKWAVGQGHTVFVISWINPDKTLSHKGFNDYMKEGPIASLDVIEELTKSKKVNVVGYCIGGTLLATTQSYLLAKGDTRINSLTFLTTLLDFEEPGEIGVYLSEKMLPFLKKDIKEKGLLDGRVLGLAFSMLRENSLFWSYFVNNYLKGKDPAPFDILYWNSDSSNLPAETFDFYMTNTYQENNLIKDGAVEVEGVPIELSKIDTPSYFLATIADHIVLWQASYKGAKALSGPTRFVLAGSGHL	not soluble
MTICRPGKGHLMIQFDAVHKRFPNGTTAVHDLSLEMPEGGVTVLVGSSGCGKTTTLRMINRMVDPTSGTIRVGGRDILEQDAAELRRSIGYVIQQSGLFPHRTVLDNIATVPLLLGWGRRKARARAAELLDTVGLAADAGRRYPHQLSGGQQQRVGVARALAADPPVLLMDEPFGAVDPVVRTQLQDELLRLQKELSKTIVFVTHDIDEAVRLGDQIAVFRTGGHLVQCASPAELLARPADDFVADFLGAERGLKLLSLTTLADVPQGPAPEGGAWTLVLDEARRPQHWRSKDGAELPVRPLRDRDSLLAALNESVASPNGLTVRVDADGVLTGVSSRDDIHEHAGRAHSEASVAALEHHHHHH	not soluble
